Values belong to the binder of their own block, whether it stands above or below them.
Key:
[1] = molecular target: human CD33 W22E (human, UniProt P20138 18-364); assay: flow cytometry, transfected cells
[2] = molecular target: human CD33 W22T (human, UniProt P20138 18-364); assay: flow cytometry, transfected cells
[3] = molecular target: human CD33 W22R (human, UniProt P20138 18-364); assay: flow cytometry, transfected cells
[4] = molecular target: human CD33 W22P (human, UniProt P20138 18-364); assay: flow cytometry, transfected cells
Sequence of human CD33 W22P (P20138 18-364 W22P limits assumed): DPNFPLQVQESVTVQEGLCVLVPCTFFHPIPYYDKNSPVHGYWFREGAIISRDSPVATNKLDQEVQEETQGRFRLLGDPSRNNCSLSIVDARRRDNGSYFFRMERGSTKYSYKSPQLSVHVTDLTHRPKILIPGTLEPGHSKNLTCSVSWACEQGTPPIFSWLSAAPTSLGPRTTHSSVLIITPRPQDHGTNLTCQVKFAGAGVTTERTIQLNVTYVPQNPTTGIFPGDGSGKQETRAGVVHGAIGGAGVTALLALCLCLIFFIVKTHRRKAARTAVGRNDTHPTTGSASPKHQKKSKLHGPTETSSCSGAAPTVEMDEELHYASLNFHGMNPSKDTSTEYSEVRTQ

[5] = molecular target: human CD33 variant Y50G (human, UniProt P20138 18-364); assay: flow cytometry, IgG on cells expressing the mutant
Sequence of human CD33 variant Y50G (P20138 18-364 Y50G limits assumed): as the sequence (P20138 18-364 W22P limits assumed) above, with P5W, Y33G counted along it
Experimental: (§1) An alanine scan on human CD33 was performed to the determine the residues on CD33 that are involved in binding to the antibodies investigated. […] Briefly, a mutation library of CD33 was created by high-throughput, site-directed mutagenesis. Each residue was individually mutated to alanine, with alanine codons mutated to serine. The mutant library was arrayed in 384-well microplates and transiently transfected into HEK293-T. Following transfection, cells were incubated with the indicated antibodies (IgG or Fab) at concentrations pre-determined using an independent immunofluorescence titration curve on wild type CD33. […] Binding of each antibody to each mutant clone was determined in duplicates. For each point, background fluorescence was subtracted from the raw data, which were then normalized to antibody reactivity with wild type CD33.
(§2) Antibodies were screened for binding to the human CD33 variants in IgG format. […] For each mutation, background fluorescence was subtracted from the raw data, which were then normalized to antibody reactivity with wild-type CD33.

[6] = molecular target: human CD33 variant Y49G (human, UniProt P20138 18-364); assay: flow cytometry, IgG on cells expressing the mutant
Experimental: as §1, §2

[7] = molecular target: human CD33 variant Y50V (human, UniProt P20138 18-364); assay: flow cytometry, IgG on cells expressing the mutant
Experimental: as §1, §2

[8] = molecular target: human CD33 variant I47L (human, UniProt P20138 18-364); assay: flow cytometry, IgG on cells expressing the mutant
Experimental: as §1, §2

[9] = molecular target: human CD33 variant I47Q (human, UniProt P20138 18-364); assay: flow cytometry, IgG on cells expressing the mutant
Experimental: as §1, §2

[10] = molecular target: human CD33 variant M120I (human, UniProt P20138 18-364); assay: flow cytometry, IgG on cells expressing the mutant
Sequence of human CD33 variant M120I (P20138 18-364 M120I limits assumed): as the sequence (P20138 18-364 W22P limits assumed) above, with P5W, M103I counted along it
Experimental: as §1, §2

[11] = molecular target: human CD33 variant P48L (human, UniProt P20138 18-364); assay: flow cytometry, IgG on cells expressing the mutant
Experimental: as §1, §2

[12] = molecular target: human CD33 variant P48G (human, UniProt P20138 18-364); assay: flow cytometry, IgG on cells expressing the mutant
Experimental: as §1, §2

[13] = molecular target: human CD33 variant I47R (human, UniProt P20138 18-364); assay: flow cytometry, IgG on cells expressing the mutant
Sequence of human CD33 variant I47R (P20138 18-364 I47R limits assumed): as the sequence (P20138 18-364 W22P limits assumed) above, with P5W, I30R counted along it
Experimental: as §1, §2

[14] = molecular target: human CD33 variant S131G (human, UniProt P20138 18-364); assay: flow cytometry, IgG on cells expressing the mutant
Experimental: as §1, §2

[15] = molecular target: human CD33 variant I47W (human, UniProt P20138 18-364); assay: flow cytometry, IgG on cells expressing the mutant
Sequence of human CD33 variant I47W (P20138 18-364 I47W limits assumed): as the sequence (P20138 18-364 W22P limits assumed) above, with P5W, I30W counted along it
Experimental: as §1, §2

[16] = molecular target: human CD33 variant P48F (human, UniProt P20138 18-364); assay: flow cytometry, IgG on cells expressing the mutant
Experimental: as §1, §2

[17] = molecular target: human CD33 variant D51K (human, UniProt P20138 18-364); assay: flow cytometry, IgG on cells expressing the mutant
Experimental: as §1, §2

[18] = molecular target: human CD33 variant P48D (human, UniProt P20138 18-364); assay: flow cytometry, IgG on cells expressing the mutant
Experimental: as §1, §2

[19] = molecular target: human CD33 variant Y49D (human, UniProt P20138 18-364); assay: flow cytometry, IgG on cells expressing the mutant
Sequence of human CD33 variant Y49D (P20138 18-364 Y49D limits assumed): as the sequence (P20138 18-364 W22P limits assumed) above, with P5W, Y32D counted along it
Experimental: as §1, §2

[20] = molecular target: human CD33 variant P48Y (human, UniProt P20138 18-364); assay: flow cytometry, IgG on cells expressing the mutant
Experimental: as §1, §2

[21] = molecular target: human CD33 variant Y129S (human, UniProt P20138 18-364); assay: flow cytometry, IgG on cells expressing the mutant
Experimental: as §1, §2

[22] = molecular target: human CD33 variant Y49C (human, UniProt P20138 18-364); assay: flow cytometry, IgG on cells expressing the mutant
Experimental: as §1, §2

[23] = molecular target: human CD33 variant I47Y (human, UniProt P20138 18-364); assay: flow cytometry, IgG on cells expressing the mutant
Sequence of human CD33 variant I47Y (P20138 18-364 I47Y limits assumed): as the sequence (P20138 18-364 W22P limits assumed) above, with P5W, I30Y counted along it
Experimental: as §1, §2

[24] = molecular target: human CD33 variant Y50L (human, UniProt P20138 18-364); assay: flow cytometry, IgG on cells expressing the mutant
Sequence of human CD33 variant Y50L (P20138 18-364 Y50L limits assumed): as the sequence (P20138 18-364 W22P limits assumed) above, with P5W, Y33L counted along it
Experimental: as §1, §2

[25] = molecular target: human CD33 variant Y127H (human, UniProt P20138 18-364); assay: flow cytometry, IgG on cells expressing the mutant
Experimental: as §1, §2

[26] = molecular target: human CD33 variant R122E (human, UniProt P20138 18-364); assay: flow cytometry, IgG on cells expressing the mutant
Experimental: as §1, §2

[27] = molecular target: human CD33 variant Y49S (human, UniProt P20138 18-364); assay: flow cytometry, IgG on cells expressing the mutant
Experimental: as §1, §2

[28] = molecular target: human CD33 variant Y50R (human, UniProt P20138 18-364); assay: flow cytometry, IgG on cells expressing the mutant
Experimental: as §1, §2

[29] = molecular target: human CD33 variant K52Y (human, UniProt P20138 18-364); assay: flow cytometry, IgG on cells expressing the mutant
Experimental: as §1, §2

[30] = molecular target: human CD33 variant Y49T (human, UniProt P20138 18-364); assay: flow cytometry, IgG on cells expressing the mutant
Sequence of human CD33 variant Y49T (P20138 18-364 Y49T limits assumed): as the sequence (P20138 18-364 W22P limits assumed) above, with P5W, Y32T counted along it
Experimental: as §1, §2

[31] = molecular target: human CD33 variant I47N (human, UniProt P20138 18-364); assay: flow cytometry, IgG on cells expressing the mutant
Sequence of human CD33 variant I47N (P20138 18-364 I47N limits assumed): as the sequence (P20138 18-364 W22P limits assumed) above, with P5W, I30N counted along it
Experimental: as §1, §2

[32] = molecular target: human CD33 variant M120L (human, UniProt P20138 18-364); assay: flow cytometry, IgG on cells expressing the mutant
Sequence of human CD33 variant M120L (P20138 18-364 M120L limits assumed): as the sequence (P20138 18-364 W22P limits assumed) above, with P5W, M103L counted along it
Experimental: as §1, §2

[33] = molecular target: human CD33 variant P48V (human, UniProt P20138 18-364); assay: flow cytometry, IgG on cells expressing the mutant
Experimental: as §1, §2

[34] = molecular target: human CD33 variant Y49Q (human, UniProt P20138 18-364); assay: flow cytometry, IgG on cells expressing the mutant
Experimental: as §1, §2

[35] = molecular target: human CD33 variant K52G (human, UniProt P20138 18-364); assay: flow cytometry, IgG on cells expressing the mutant
Experimental: as §1, §2

Sequence of human CD33 W22T (P20138 18-364 W22T limits assumed): as the sequence (P20138 18-364 W22P limits assumed) above, with P5T counted along it
Sequence of human CD33 W22E (P20138 18-364 W22E limits assumed): as the sequence (P20138 18-364 W22P limits assumed) above, with P5E counted along it
Sequence of human CD33 W22R (P20138 18-364 W22R limits assumed): as the sequence (P20138 18-364 W22P limits assumed) above, with P5R counted along it

B2: Refmab #3 (antibody, human IgG1, V domains shown)
VH: QVQLVQSGAEVKKPGSSVKVSCKASGYTFTDYNMHWVRQAPGQGLEWIGYIYPYNGGTGYNQKFKSKATITADESTNTAYMELSSLRSEDTAVYYCARGRPAMDYWGQGTLVTVSS
VL: DIQMTQSPSSLSASVGDRVTITCRASESVDNYGISFMNWFQQKPGKAPKLLIYAASNQGSGVPSRFSGSGSGTDFTLTISSLQPDDFATYYCQQSKEVPWTFGQGTKVEIK
binding result [1]: no binding (tested: below 20%) | binding result [2]: no binding (tested: below 20%) | binding result [3]: no binding (tested: below 20%) | binding result [4]: no binding (tested: below 20%)

B4: Refmab #1 (antibody, human IgG1, V domains shown)
VH: EVQLVQSGAEVKKPGSSVKVSCKASGYTITDSNIHWVRQAPGQSLEWIGYIYPYNGGTDYNQKFKNRATLTVDNPTNTAYMELSSLRSEDTAFYYCVNGNPWLAYWGQGTLVTVSS
VL: DIQLTQSPSTLSASVGDRVTITCRASESLDNYGIRFLTWFQQKPGKAPKLLMYAASNQGSGVPSRFSGSGSGTEFTLTISSLQPDDFATYYCQQTKEVPWSFGQGTKVEVK
notes: also called hP67.6; Absolute Antibody Cat. No. Ab00283-10.0
binding result [1]: no binding (tested: below 20%) | binding result [2]: no binding (tested: below 20%) | binding result [3]: no binding (tested: below 20%) | binding result [4]: no binding (tested: below 20%)

More lines, now with the values ahead:

binding result [1]: no binding (tested: below 20%) | binding result [2]: no binding (tested: below 20%) | binding result [3]: no binding (tested: below 20%) | binding result [4]: no binding (tested: below 20%)
B1: Refmab #6 (antibody, human IgG1, V domains shown)
VH: QVQLQQPGAEVVKPGASVKMSCKASGYTFTSYYIHWIKQTPGQGLEWVGVIYPGNDDISYNQKFQGKATLTADKSSTTAYMQLSSLTSEDSAVYYCAREVRLRYFDVWGQGTTVTVSS
VL: EIVLTQSPGSLAVSPGERVTMSCKSSQSVFFSSSQKNYLAWYQQIPGQSPRLLIYWASTRESGVPDRFTGSGSGTDFTLTISSVQPEDLAIYYCHQYLSSRTFGQGTKLEIK

Mean % WT Binding [5]: 92.8 % of WT | Mean % WT Binding [6]: 107 % of WT | Mean % WT Binding [7]: 94.9 % of WT | Mean % WT Binding [8]: 112 % of WT | Mean % WT Binding [9]: 104 % of WT | Mean % WT Binding [10]: 96.6 % of WT | Mean % WT Binding [11]: 102 % of WT | Mean % WT Binding [12]: 95 % of WT | Mean % WT Binding [13]: 96.1 % of WT | Mean % WT Binding [14]: 95.1 % of WT | Mean % WT Binding [15]: 111 % of WT | Mean % WT Binding [16]: 94.6 % of WT | Mean % WT Binding [17]: 90.7 % of WT | Mean % WT Binding [18]: 109 % of WT | Mean % WT Binding [19]: 93.4 % of WT | Mean % WT Binding [20]: 99.5 % of WT | Mean % WT Binding [21]: 68.7 % of WT | Mean % WT Binding [22]: 67.2 % of WT | Mean % WT Binding [23]: 110 % of WT | Mean % WT Binding [24]: 109 % of WT | Mean % WT Binding [25]: 97.1 % of WT | Mean % WT Binding [26]: 110 % of WT | Mean % WT Binding [27]: 107 % of WT | Mean % WT Binding [28]: 94.1 % of WT | Mean % WT Binding [29]: 45 % of WT | Mean % WT Binding [30]: 108 % of WT | Mean % WT Binding [31]: 87.8 % of WT | Mean % WT Binding [32]: 98.4 % of WT | Mean % WT Binding [33]: 121 % of WT | Mean % WT Binding [34]: 105 % of WT | Mean % WT Binding [35]: 98.8 % of WT
B3: Refmab #1 (antibody, human IgG1, V domains shown)
VH: B4 VH
VL: B4 VL
notes: Tested in IgG format; human IgG1 (Absolute Antibody hP67.6, Cat. No. Ab00283-10.0); also called hP67.6
